Laboratory results reported in patent US6680291.

Columns and labels:
[1] = target: T1, human CNTF receptor alpha-component on MG87/CNTFR fibroblasts (human, UniProt P26992 23-342); assay: competition with 125I-rat CNTF on MG87/CNTFR cells
T1 construct: whole, on cells; Mouse fibroblast cell line transfected with the human CNTF alpha receptor gene; also called CNTFRalpha; MG87/huCNTFR
T1 sequence (looked up): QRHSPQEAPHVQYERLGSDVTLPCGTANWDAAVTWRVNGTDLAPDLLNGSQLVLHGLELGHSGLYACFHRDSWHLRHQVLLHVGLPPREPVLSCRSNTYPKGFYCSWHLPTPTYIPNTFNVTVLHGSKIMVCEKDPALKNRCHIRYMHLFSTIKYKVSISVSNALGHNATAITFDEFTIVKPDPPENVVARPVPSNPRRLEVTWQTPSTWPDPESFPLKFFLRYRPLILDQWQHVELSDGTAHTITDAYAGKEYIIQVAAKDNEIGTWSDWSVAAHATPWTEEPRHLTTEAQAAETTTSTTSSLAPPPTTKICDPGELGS
Protocol: (§1) Binding was performed directly on cell monolayers. Cells in culture wells were washed once with assay buffer consisting of phosphate buffered saline (PBS; pH 7.4), 0.1 mM bacitracin, 1 mM PMSF, 1 µg/ml leupeptin, and 1 mg/ml BSA. […] Non-specific binding was determined in the presence of 1,000-fold excess of unlabelled CNTF. Specific binding towards MG87/CNTFR was 80–90%. Data were analyzed using the […] program (ISI, Philadelphia, Pa.).

[2] = target: T2, rat CNTF receptor on rat superior cervical ganglia (SCG) neurons (rat, UniProt Q08406 23-342); assay: competition with 125I-rat CNTF on rat SCG neurons
T2 construct: whole, on cells; The neurons carry the endogenous receptor, and the other receptor components may also be present; also called rat receptor
T2 sequence (looked up): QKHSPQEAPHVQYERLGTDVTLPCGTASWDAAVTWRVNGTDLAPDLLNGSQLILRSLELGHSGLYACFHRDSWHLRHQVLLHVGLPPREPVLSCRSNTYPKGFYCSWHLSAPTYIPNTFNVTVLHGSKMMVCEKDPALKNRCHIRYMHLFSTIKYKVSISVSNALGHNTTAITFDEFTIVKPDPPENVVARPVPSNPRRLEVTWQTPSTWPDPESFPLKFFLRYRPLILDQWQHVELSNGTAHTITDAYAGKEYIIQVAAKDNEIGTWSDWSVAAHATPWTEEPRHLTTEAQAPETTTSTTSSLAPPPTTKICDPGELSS
Protocol: Growth medium consisted of Ham's nutrient mixture F12 with 10% heat-inactivated fetal bovine serum (Hyclone), nerve growth factor (NGF) (100 ng/ml), penicillin (50 U/ml) and streptomycin (50 µg/ml). Cultures were maintained at 37° C. in a humidified 95% air/5% CO_2 atmosphere. Ganglion non-neuronal cells were eliminated by treatment with araC (10 µM) on days 1 and 3 of culture. Cultures were fed 3 times/week and were routinely used for binding assays within 2 weeks.
as §1

[3] = target: T1, human CNTF receptor alpha-component on …; assay: competition binding experiments, data not shown; cells not given

B1: recombinant rat CNTF (ligand)
chain: MAFAEQTPLTLHRRDLCSRSIWLARKIRSDLTALMESYVKHQGLNKNINLDSVDGVPVASTDRWSEMTEAERLQENLQAYRTFQGMLTKLLEDQRVHFTPTEGDFHQAIHTLMLQVSAFAYQLEELMVLLEQKIPENEADGMPATVGDGGLFEKKLWGLKVLQELSQWTVRSIHDLRVISSHQMGISALESHYGAKDKQM
notes: also called unlabelled rat CNTF
[1]
  IC50: 2.8 nM
[2]
  IC50: 0.28 nM

B2: RPN186 (ligand)
chain: MAFTEHSPLTPHRRDLCSRSIWLARKIRSDLTALTESYVKHQGLNKNINLDSVDGVPVASTDRWSEMTEAERLQENLQAYRTFQGMLTKLLEDQRVHFTPTEGDFHQAIHTLMLQVSAFAYQLEELMVLLEQKIPENEADGMPATVGDGGLFEKKLWGLKVLQELSQWTVRSIHDLRVISSHQMGISALESHYGAKDKQM
notes: Chimeric CNTF
[3]
  binding result: binds

B3: RPN189 (ligand)
chain: MAFAEQTPLTLHRRDLCSRSIWLARKIRSDLTALMESYVKHQGLNKNINLDSVDGVPVASTDRWSEMTEAERLQENLQAYRTFQGMLTKLLEDQRVHFTPTEGDFHQAIHTLMLQVSAFAYQLEELMVLLEQKIPENEADGMPATVGDGGLFEKKLWGLKVLQELSQWTVRSIHDLRFISSHQTGIPARGSHYIANNKKM
notes: Chimeric CNTF
[3]
  binding result: binds

B4: RPN192 (ligand)
chain: MAFTEHSPLTPHRRDLCSRSIWLARKIRSDLTALTESYVKHQGLNKNINLDSADGMPVASTDQWSELTEAERLQENLQAYRTFQGMLTKLLEDQRVHFTPTEGDFHQAIHTLMLQVSAFAYQLEELMVLLEQKIPENEADGMPATVGDGGLFEKKLWGLKVLQELSQWTVRSIHDLRFISSHQTGIPARGSHYIANNKKM
notes: Chimeric CNTF
[3]
  binding result: binds

B5: recombinant human CNTF (ligand)
chain: MAFTEHSPLTPHRRDLCSRSIWLARKIRSDLTALTESYVKHQGLNKNINLDSADGMPVASTDQWSELTEAERLQENLQAYRTFHVLLARLLEDQQVHFTPTEGDFHQAIHTLLLQVAAFAYQIEELMILLEYKIPRNEADGMPINVGDGGLFEKKLWGLKVLQELSQWTVRSIHDLRFISSHQTGIPARGSHYIANNKKM
notes: also called rHCNTF; hCNTF
[1]
  IC50: 30 nM
  fold less potent than rat CNTF: 12 fold
[2]
  IC50: 25 nM
  fold less potent than unlabelled rat CNTF: 90 fold

B6: RPN187 (ligand)
chain: MAFAEQTPLTLHRRDLCSRSIWLARKIRSDLTALMESYVKHQGLNKNINLDSADGMPVASTDQWSELTEAERLQENLQAYRTFHVLLARLLEDQQVHFTPTEGDFHQAIHTLLLQVAAFAYQIEELMILLEYKIPRNEADGMPINVGDGGLFEKKLWGLKVLQELSQWTVRSIHDLRFISSHQTGIPARGSHYIANNKKM
notes: Chimeric CNTF
[3]
  binding result: binds

B7: RPN222 (ligand)
chain: MAFTEHSPLTPHRRDLCSRSIWLARKIRSDLTALTESYVKHQGLNKNINLDSVDGMPVASTDQWSEMTEAERLQENLQAYRTFHVLLARLLEDQQVHFTPTEGDFHQAIHTLLLQVAAFAYQIEELMILLEYKIPRNEADGMPINVGDGGLFEKKLWGLKVLQELSQWTVRSIHDLRFISSHQTGIPARGSHYIANNKKM
notes: Chimeric CNTF
[3]
  binding result: binds

B8: RPN228 (ligand)
chain: MAFTEHSPLTPHRRDLCSRSIWLARKIRSDLTALTESYVKHQGLNKNINLDSADGMPVASTDRWSELTEAERLQENLQAYRTFHVLLARLLEDQQVHFTPTEGDFHQAIHTLLLQVAAFAYQIEELMILLEYKIPRNEADGMPINVGDGGLFEKKLWGLKVLQELSQWTVRSIHDLRFISSHQTGIPARGSHYIANNKKM
notes: Expressed in E. coli; also called RG228; rHCNTF,63QR
[1]
  IC50: 5.6 nM

B9: RPN218 (ligand)
chain: MAFTEHSPLTPHRRDLCSRSIWLARKIRSDLTALMESYVKHQGLNKNINLDSVDGVPVASTDRWSEMTEAERLQENLQAYRTFHVLLARLLEDQQVHFTPTEGDFHQAIHTLLLQVAAFAYQIEELMILLEYKIPRNEADGMPINVGDGGLFEKKLWGLKVLQELSQWTVRSIHDLRFISSHQTGIPARGSHYIANNKKM
notes: Chimeric CNTF
[3]
  binding result: binds

B10: RPN219 (ligand)
chain: MAFTEHSPLTPHRRDLCSRSIWLARKIRSDLTALTESYVKHQGLNKNINLDSVDGVPVASTDRWSEMTEAERLQENLQAYRTFHVLLARLLEDQQVHFTPTEGDFHQAIHTLLLQVAAFAYQIEELMILLEYKIPRNEADGMPINVGDGGLFEKKLWGLKVLQELSQWTVRSIHDLRFISSHQTGIPARGSHYIANNKKM
notes: Expressed in E. coli; also called CNTF RPN219
[2]
  IC50: 0.3 nM
